{"source": "patent US20260226152A1", "about": "(GlaxoSmithKline, published 2026)", "binders": {"B1": {"name": "Heterodimeric bsAb 3 (bispecific antibody, human IgG1, kappa)", "heavy 1": "QVQLVQSGAEVKKPGASVKVSCKVSGEISTGYYFHWVRQAPGKGLEWMGRIDPEDDSTKYAERFKDRVTMTEDTSTDTAYMELSSLRSEDTAVYYCTTWRIYRDSSGRPFYVMDAWGQGTLVTVSSASTKGPSVFPLAPSSKSTSGGTAALGCEVTDYFPEPVTVSWNSGALTSGVHTFPAVLESSGLYSLSSVVTVPSSSLGTQTYICNVNHKPSNTKVDKKVEPKSCDKTHTCPPCPAPELAGAPSVFLFPPKPKDTLMISRTPEVTCVVVDVSHEDPEVKFNWYVDGVEVHNAKTKPREEQYNSTYRVVSVLTVLHQDWLNGKEYKCKVSNKALPAPIEKTISKAKGQPREPQVYVYPPSRDELTKNQVSLTCLVKGFYPSDIAVEWESNGQPENNYKTTPPVLDSDGSFALVSKLTVDKSRWQQGNVFSCSVMHEALHNHYTQKSLSLSPGK", "light 1": "DIQMTQSPSSVSASVGDRVTITCLASEDIYTYLTWYQQKPGKAPKLLIYGANKLQDGVPSRFSGSGSGTDYTLTISSLQPEDFATYYCLQGSKFPLTFGQGTKLEIKRTVAAPSVFIFPPSDERLKSGTASVVCLLNNFYPREAKVQWKVDNALQSGNSQESVTEQDSKDSTYSLSSRLTLSKADYEKHKVYACEVTHQGLSSPVTKSFNRGEC", "heavy 2": "QVQLVQSGAEVKKPGASVKVSCKASGYIFITYWMTWVRQAPGQGLEWMGQIFPASGSADYNEKFEGRVTMTTDTSTSTAYMELRSLRSDDTAVYYCARGGGGFAYWGQGTLVTVSSASTKGPSVFPLAPSSKSTSGGTAALGCRVKDYFPEPVTVSWNSGALTSGVHTFPAVLQSSGLYSLSSVVTVPSSSLGTQTYICNVNHKPSNTKVDKKVEPKSCDKTHTCPPCPAPELAGAPSVFLFPPKPKDTLMISRTPEVTCVVVDVSHEDPEVKFNWYVDGVEVHNAKTKPREEQYNSTYRVVSVLTVLHQDWLNGKEYKCKVSNKALPAPIEKTISKAKGQPREPQVYVLPPSRDELTKNQVSLLCLVKGFYPSDIAVEWESNGQPENNYLTWPPVLDSDGSFFLYSKLTVDKSRWQQGNVFSCSVMHEALHNHYTQKSLSLSPGK", "light 2": "DIQMTQSPSSLSASVGDRVTITCRTSENIYSYLAWYQQKPGKAPKLLIYNAKTLAEGVPSRFSGSGSGTDFTLTISSLQPEDFATYYCQHHYGIPFTFGQGTKVEIKRTVAAPSVFIFPPSDEELKSGTASVECLLNNFYPREAKVQWKVDNALQSGNSQESVTEQDSKDSTYSLSSTLTLSKADYEKHKVYACEVTHQGLSSPVTKSFNRGEC", "notes": "Het-mAb format: anti-IL-18 mAb on ZA and anti-IL-23 mAb (tildrakizumab) on ZB, with Fc heterodimerisation and silencing mutations"}, "B2": {"name": "IL-18 control 2 (antibody, V domains shown)", "VH": "QVQLVQSGAEVKKPGASVKVSCKVSGEISTGYYFHWVRQAPGKGLEWMGRIDPEDDSTKYAERFKDRVTMTEDTSTDTAYMELSSLRSEDTAVYYCTTWRIYRDSSGRPFYVMDAWGQGTLVTVSS", "VL": "DIQMTQSPSSVSASVGDRVTITCLASEDIYTYLTWYQQKPGKAPKLLIYGANKLQDGVPSRFSGSGSGTDYTLTISSLQPEDFATYYCLQGSKFPLTFGQGTKLEIK"}}, "key": {"Human IL-23 [1]": {"target": "T1, Human IL-23 (human, UniProt Q9NPF7 20-189; P29460 23-328)", "T1 sequence 1": "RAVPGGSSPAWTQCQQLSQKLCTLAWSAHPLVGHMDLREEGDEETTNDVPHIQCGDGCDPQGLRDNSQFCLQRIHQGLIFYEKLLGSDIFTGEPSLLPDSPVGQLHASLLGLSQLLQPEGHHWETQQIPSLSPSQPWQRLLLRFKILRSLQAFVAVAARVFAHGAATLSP", "T1 sequence 2": "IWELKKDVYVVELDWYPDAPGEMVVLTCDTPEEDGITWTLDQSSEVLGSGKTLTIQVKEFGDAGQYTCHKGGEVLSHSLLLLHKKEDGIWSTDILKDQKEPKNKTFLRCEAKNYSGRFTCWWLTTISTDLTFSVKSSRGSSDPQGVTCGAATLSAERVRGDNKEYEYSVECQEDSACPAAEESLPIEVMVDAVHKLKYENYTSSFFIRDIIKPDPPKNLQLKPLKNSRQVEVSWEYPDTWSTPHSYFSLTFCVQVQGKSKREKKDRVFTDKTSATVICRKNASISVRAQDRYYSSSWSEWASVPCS", "assay": "cell-based or functional assay"}, "Human IL-18 [2]": {"target": "T2, Human IL-18 (human, UniProt Q14116 37-193)", "T2 construct": "Recombinant, made in-house; In the BLI assay the loaded cytokine was captured on anti-Penta His sensors, so a His tag is implied but not described; also called recombinant human IL-18; interleukin 18", "T2 sequence": "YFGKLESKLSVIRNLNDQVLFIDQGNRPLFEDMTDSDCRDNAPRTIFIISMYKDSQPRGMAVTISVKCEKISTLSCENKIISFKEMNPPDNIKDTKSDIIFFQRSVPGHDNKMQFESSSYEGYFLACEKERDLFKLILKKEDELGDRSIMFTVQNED", "assay": "SPR (Biacore), antibody captured on Protein A/G, cytokine as analyte, 25 C, 1:1 fit, n=1", "protocol": "(§1) A heterodimeric bsAb, alongside anti-IL-18 and anti-IL-23 common light chain control bispecific antibodies, were assessed for binding to human and cyno IL-18 and IL-23, using the Biacore 8K and T200 (Cytiva) surface plasmon resonance (SPR) instruments. All reagents were generated recombinantly in-house with the exception of Rhesus monkey IL-18 which was purchased from R&D systems (Cat #2548-RM-025/CF). Rhesus and cynomolgus monkey amino acid sequences are identical. Therefore, the protein will be referred to as cynomolgus monkey IL-18.\n(§2) Heterodimeric bsAb, anti-IL-18 and anti-IL-23 common light chain bispecific control molecules were assessed for binding to recombinant human and cynomolgus monkey IL-18 and IL-23 using the Biacore 8K and T200 (Cytiva) SPR instruments. The antibodies were captured onto Protein A/G, which was immobilised onto flow cell 2 of 8 channels (Biacore 8K) or flow cells 2, 3 and 4 (Biacore T200) of a CM5 series S sensor chip by primary amine coupling. The IL-18 or IL-23 analytes were passed over the captured antibodies at varying concentrations between 0.04-25 nM. The association phase was for 240 seconds at 30 μl/min, followed by a dissociation step of up to 1200 seconds. A 0 nM (i.e., buffer alone) injection was used to double reference the binding curves. Regeneration of the chip surface between cycles was carried out using 50 mM NaOH. The assay was run at 25° C. in HBS-EP⁺ buffer. Biacore 8K control software version 3.0 was used to run the experiment. Data was analysed using Biacore 8K Insight evaluation software version 3.0. Biacore T200 control software version 1.0 was used to run the experiment. Data was analysed using Biacore T200 evaluation software version 2.0. Affinities and kinetics were determined using the 1:1 kinetic fit inherent to the software where possible. All affinity values generated using both instruments were combined to determine geometric mean values."}, "Human IL-23 [3]": {"target": "T1, Human IL-23", "assay": "SPR (Biacore), antibody captured on Protein A/G, cytokine as analyte, 25 C, 1:1 fit, n=1", "protocol": "as §1, §2"}, "Human IL-18 [4]": {"target": "T2, Human IL-18", "assay": "cell-based or functional assay"}, "Human IL-23 [5]": {"target": "T1, Human IL-23", "assay": "cell-based or functional assay", "remark": "listed apart in the source"}, "Human IL-18 [6]": {"target": "T2, Human IL-18", "assay": "cell-based or functional assay", "remark": "listed apart in the source"}, "Cynomolgus monkey IL-18": {"target": "T3, Cynomolgus monkey IL-18 (Rhesus monkey (identical to cynomolgus …, UniProt Q9BGI5 37-193))", "T3 sequence": "T2 sequence with V11I, S50N, T63A, K79R, F134Y, E141K", "assay": "cell-based or functional assay"}, "Human IL-18 [7]": {"target": "T2, Human IL-18", "assay": "cell-based or functional assay", "remark": "listed apart in the source"}}, "note": "Substitutions are numbered along the chain they refer to. Like-named read-outs stand apart in the source and are kept apart here.", "data": [{"binder": "B1", "values": [{"measurement": "IC50 Heterodimeric bsAbs (% of Parent IL-23 control 3), IL-23-induced pSTAT3 in T cells of human whole blood", "setting": "Human IL-23 [1]", "result": "100 % of Parent"}, {"measurement": "IC50 Heterodimeric bsAbs (pM), inhibition of IL-23-induced pSTAT3 in CD3+CD161+ T cells of human whole blood", "setting": "Human IL-23 [1]", "result": 640, "unit": "pM"}, {"measurement": "Kd", "setting": "Human IL-18 [2]", "result": "< 0.01", "unit": "nM"}, {"measurement": "Kd", "setting": "Human IL-23 [3]", "result": 0.499, "unit": "nM"}, {"measurement": "IC50 Heterodimeric bsAbs (% of Parent IL-18 control 3), LPS + IL12-induced IFN-γ in human whole blood", "setting": "Human IL-18 [4]", "result": "280 % of Parent"}, {"measurement": "IC50 Heterodimeric bsAbs (nM), inhibition of LPS + IL12-induced IFN-γ in human whole blood", "setting": "Human IL-18 [4]", "result": 21.7, "unit": "nM"}, {"measurement": "IC50 Heterodimeric bsAb (% of Parent IL-23 control 3), IL-23-induced mouse IL-17A in mouse splenocytes", "setting": "Human IL-23 [5]", "result": "387 % of Parent"}, {"measurement": "IC50 Heterodimeric bsAb (pM), inhibition of human IL-23-induced mouse IL-17A secretion in mouse splenocytes", "setting": "Human IL-23 [5]", "result": 2670, "unit": "pM"}, {"measurement": "IC50 (pM, Mean), neutralisation of human IL-18-induced IFNγ secretion by KG-1 cells", "setting": "Human IL-18 [6]", "result": 105, "unit": "pM"}, {"measurement": "pIC50 (GeoMean), neutralisation of human IL-18-induced IFNγ secretion by KG-1 cells", "setting": "Human IL-18 [6]", "result": 9.98}]}, {"binder": "B2", "values": [{"measurement": "IC50 (pM, Mean), neutralisation of cynomolgus IL-18-induced IFNγ secretion by KG-1 cells", "setting": "Cynomolgus monkey IL-18", "result": 64.6, "unit": "pM"}, {"measurement": "pIC50 (GeoMean), neutralisation of cynomolgus IL-18-induced IFNγ secretion by KG-1 cells", "setting": "Cynomolgus monkey IL-18", "result": 10.2}, {"measurement": "IC50 (pM, Mean), neutralisation of human IL-18-induced IFNγ secretion by KG-1 cells", "setting": "Human IL-18 [7]", "result": 39.8, "unit": "pM"}, {"measurement": "pIC50 (GeoMean), neutralisation of human IL-18-induced IFNγ secretion by KG-1 cells", "setting": "Human IL-18 [7]", "result": 10.4}, {"measurement": "IC50 (pM, Mean), neutralisation of human IL-18-induced IFNγ secretion by KG-1 cells", "setting": "Human IL-18 [6]", "result": 41, "unit": "pM"}, {"measurement": "pIC50 (GeoMean), neutralisation of human IL-18-induced IFNγ secretion by KG-1 cells", "setting": "Human IL-18 [6]", "result": 10.4}]}]}
